# Measured values: article doi:10.1101/2024.12.09.627633 (bioRxiv, 2024)
# B1: CAF domain (residues 148-223) of G175S human PMEL (domain or fragment, UniProt P40967 148-223, looked up)
# chain: SFVYVWKTWGQYWQVLGGPVSGLSIGTSRAMLGTHTMEVTVYHRRGSRSYVPLAHSSSAFTITDQVPFSVSVSQLR
# notes: PMEL, human, CAF (core amyloid-forming) domain, residues 148-223, with the G175S mutation linked to pigment dispersion syndrome; Polymerised in vitro in 150 mM sodium acetate pH 4.4 into two-protofilament fibrils; also called G175S CAF domain; G175S mutant; source: E. coli BL21 (DE3), pET24a, inclusion bodies, purified (Ni-NTA in 8M urea)
# Target: the molecule itself
# Test: thioflavin T fluorescence of in vitro polymerisation; CAF domains 30 uM polymerised at 37 C with shaking at 200 rpm; ThT added at each time point; excitation 444 nm, emission 480 nm
protein,measurement,value
B1,fold final yield of polymerized amyloids against the wild type,~4 fold
same,fold rate of polymerisation against the wild type,~4 fold
